# Measured values reported in article PMC2691479, “SNX4 in Complex with Clathrin and Dynein: Implications for Endosome Movement” (PLoS ONE, 2009).
# T1: Sorting nexin 4 (SNX4), endogenous (human (endogenous in HEK293), UniProt O95219 1-450)
# T1 construct: SNX4, endogenous in HEK293 cells, precipitated with anti-SNX4 (E-18); source: endogenous, HEK293 lysate
# T1 sequence (looked up): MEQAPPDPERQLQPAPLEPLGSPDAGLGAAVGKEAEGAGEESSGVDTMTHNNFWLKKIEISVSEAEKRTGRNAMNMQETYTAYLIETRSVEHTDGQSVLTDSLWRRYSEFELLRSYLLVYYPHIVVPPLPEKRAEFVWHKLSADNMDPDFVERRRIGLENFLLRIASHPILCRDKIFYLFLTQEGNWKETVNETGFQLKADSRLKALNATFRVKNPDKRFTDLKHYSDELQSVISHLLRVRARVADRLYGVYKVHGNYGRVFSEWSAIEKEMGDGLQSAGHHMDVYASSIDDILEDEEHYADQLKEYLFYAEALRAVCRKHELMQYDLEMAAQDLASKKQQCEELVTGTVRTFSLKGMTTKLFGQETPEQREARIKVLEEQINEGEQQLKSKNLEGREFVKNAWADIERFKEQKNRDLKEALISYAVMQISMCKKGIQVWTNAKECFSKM
# Biological target: T1, Sorting nexin 4 (SNX4), endogenous
# Assay: co-IP; anti-SNX4 (E-18) on Protein A Sepharose, HEK293 lysate (0.1 M NaCl, 10 mM Na2HPO4 pH 7.4, 1 mM EDTA, 1% Triton X-100), overnight at 4°C, Western blot; cells untreated, or transfected with control, SNX4 or CHC siRNA, or treated with nocodazole for 30 min
# Conditions: partners not purified
binder,measurement,value
"clathrin heavy chain (CHC), endogenous (natural protein, human (endogenous in HEK293), UniProt Q00610 1-1675, looked up, clathrin heavy chain, endogenous in HEK293 cells, detected with anti-CHC; source: endogenous, HEK293 lysate) MAQILPIRFQEHLQLQNLGINPANIGFSTLTMESDKFICIREKVGEQAQVVIIDMNDPSNPIRRPISADSAIMNPASKVIALKAGKTLQIFNIEMKSKMKAHTMTDDVTFWKWISLNTVALVTDNAVYHWSMEGESQPVKMFDRHSSLAGCQIINYRTDAKQKWLLLTGISAQQNRVVGAMQLYSVDRKVSQPIEGHAASFAQFKMEGNAEESTLFCFAVRGQAGGKLHIIEVGTPPTGNQPFPKKAVDVFFPPEAQNDFPVAMQISEKHDVVFLITKYGYIHLYDLETGTCIYMNRISGETIFVTAPHEATAGIIGVNRKGQVLSVCVEEENIIPYITNVLQNPDLALRMAVRNNLAGAEELFARKFNALFAQGNYSEAAKVAANAPKGILRTPDTIRRFQSVPAQPGQTSPLLQYFGILLDQGQLNKYESLELCRPVLQQGRKQLLEKWLKEDKLECSEELGDLVKSVDPTLALSVYLRANVPNKVIQCFAETGQVQKIVLYAKKVGYTPDWIFLLRNVMRISPDQGQQFAQMLVQDEEPLADITQIVDVFMEYNLIQQCTAFLLDALKNNRPSEGPLQTRLLEMNLMHAPQVADAILGNQMFTHYDRAHIAQLCEKAGLLQRALEHFTDLYDIKRAVVHTHLLNPEWLVNYFGSLSVEDSLECLRAMLSANIRQNLQICVQVASKYHEQLSTQSLIELFESFKSFEGLFYFLGSIVNFSQDPDVHFKYIQAACKTGQIKEVERICRESNCYDPERVKNFLKEAKLTDQLPLIIVCDRFDFVHDLVLYLYRNNLQKYIEIYVQKVNPSRLPVVIGGLLDVDCSEDVIKNLILVVRGQFSTDELVAEVEKRNRLKLLLPWLEARIHEGCEEPATHNALAKIYIDSNNNPERFLRENPYYDSRVVGKYCEKRDPHLACVAYERGQCDLELINVCNENSLFKSLSRYLVRRKDPELWGSVLLESNPYRRPLIDQVVQTALSETQDPEEVSVTVKAFMTADLPNELIELLEKIVLDNSVFSEHRNLQNLLILTAIKADRTRVMEYINRLDNYDAPDIANIAISNELFEEAFAIFRKFDVNTSAVQVLIEHIGNLDRAYEFAERCNEPAVWSQLAKAQLQKGMVKEAIDSYIKADDPSSYMEVVQAANTSGNWEELVKYLQMARKKARESYVETELIFALAKTNRLAELEEFINGPNNAHIQQVGDRCYDEKMYDAAKLLYNNVSNFGRLASTLVHLGEYQAAVDGARKANSTRTWKEVCFACVDGKEFRLAQMCGLHIVVHADELEELINYYQDRGYFEELITMLEAALGLERAHMGMFTELAILYSKFKPQKMREHLELFWSRVNIPKVLRAAEQAHLWAELVFLYDKYEEYDNAIITMMNHPTDAWKEGQFKDIITKVANVELYYRAIQFYLEFKPLLLNDLLMVLSPRLDHTRAVNYFSKVKQLPLVKPYLRSVQNHNNKSVNESLNNLFITEEDYQALRTSIDAYDNFDNISLAQRLEKHELIEFRRIAAYLFKGNNRWKQSVELCKKDSLYKDAMQYASESKDTELAEELLQWFLQEEKRECFGACLFTCYDLLRPDVVLETAWRHNIMDFAMPYFIQVMKEYLTKVDKLDASESLRKEEEQATETQPIVYGQPQLMLTAGPSVAVPPQAPFGYGYTAPPYGQPQPGFGYSM","fold change of CHC binding to SNX4, nocodazole-treated against untreated cells",2.3 fold
